Data: patent publication US20210130491A1 (ONCOTAG DIAGNOSTICS, published 2021)

T1: MRS fragment 3 (267~597 aa)
T1 construct: Expressed in H460 cells from pcDNA3; also called lane 3
T1 single chain: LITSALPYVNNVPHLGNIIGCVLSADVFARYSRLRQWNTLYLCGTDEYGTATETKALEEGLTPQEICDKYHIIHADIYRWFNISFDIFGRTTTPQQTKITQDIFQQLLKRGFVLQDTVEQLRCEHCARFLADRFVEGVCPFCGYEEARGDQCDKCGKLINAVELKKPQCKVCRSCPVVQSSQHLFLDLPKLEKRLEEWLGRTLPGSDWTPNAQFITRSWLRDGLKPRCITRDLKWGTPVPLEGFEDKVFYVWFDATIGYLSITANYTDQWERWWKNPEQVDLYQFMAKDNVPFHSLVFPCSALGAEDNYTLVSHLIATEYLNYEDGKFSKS

T2: MRS fragment 4 (1~597 aa)
T2 construct: Expressed in H460 cells from pcDNA3; also called lane 4
T2 single chain: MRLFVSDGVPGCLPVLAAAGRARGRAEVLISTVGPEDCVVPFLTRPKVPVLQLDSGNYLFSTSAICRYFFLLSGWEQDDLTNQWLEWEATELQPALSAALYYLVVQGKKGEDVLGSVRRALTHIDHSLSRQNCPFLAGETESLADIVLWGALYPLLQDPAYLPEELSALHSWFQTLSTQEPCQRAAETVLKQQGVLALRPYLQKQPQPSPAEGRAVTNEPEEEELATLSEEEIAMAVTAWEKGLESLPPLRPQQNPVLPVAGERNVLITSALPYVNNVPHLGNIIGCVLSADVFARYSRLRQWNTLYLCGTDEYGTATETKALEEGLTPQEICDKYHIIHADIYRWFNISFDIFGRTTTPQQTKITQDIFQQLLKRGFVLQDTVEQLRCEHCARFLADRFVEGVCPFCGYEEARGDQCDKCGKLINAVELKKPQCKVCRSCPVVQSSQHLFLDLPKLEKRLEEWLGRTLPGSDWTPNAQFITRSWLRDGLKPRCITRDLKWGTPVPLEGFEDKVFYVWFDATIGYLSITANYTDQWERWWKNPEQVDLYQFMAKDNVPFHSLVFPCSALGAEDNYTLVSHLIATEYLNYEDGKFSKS

T3: MRS fragment 1 (1~266 aa)
T3 construct: Expressed in H460 cells from pcDNA3; also called lane 1
T3 single chain: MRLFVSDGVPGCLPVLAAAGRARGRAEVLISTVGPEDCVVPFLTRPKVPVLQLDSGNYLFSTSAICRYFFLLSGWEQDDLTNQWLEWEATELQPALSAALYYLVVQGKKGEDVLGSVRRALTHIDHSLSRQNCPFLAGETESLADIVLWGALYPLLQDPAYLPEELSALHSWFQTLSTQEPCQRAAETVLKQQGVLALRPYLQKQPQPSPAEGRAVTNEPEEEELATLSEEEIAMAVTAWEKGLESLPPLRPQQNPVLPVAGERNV

T4: MRS fragment 2 (267~417 aa)
T4 construct: Expressed in H460 cells from pcDNA3; also called lane 2
T4 single chain: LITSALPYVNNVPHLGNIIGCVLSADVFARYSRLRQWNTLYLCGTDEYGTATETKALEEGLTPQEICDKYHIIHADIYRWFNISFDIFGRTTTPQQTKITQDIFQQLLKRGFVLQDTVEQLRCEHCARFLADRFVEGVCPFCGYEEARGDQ

T5: AIMP3 (aminoacyl tRNA synthetase complex-interacting multifunctional protein 3) (Homo sapiens (Human), UniProt O43324 1-174, limits assumed)
T5 construct: How the AIMP3-alone protein for SPR and screening was made is not described; also called p18
T5 sequence: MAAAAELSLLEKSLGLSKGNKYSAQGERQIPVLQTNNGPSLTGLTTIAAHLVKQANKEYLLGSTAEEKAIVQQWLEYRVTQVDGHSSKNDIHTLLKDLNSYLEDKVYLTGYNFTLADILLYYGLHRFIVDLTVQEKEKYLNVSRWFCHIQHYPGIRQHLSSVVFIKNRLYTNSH

T6: MRS fragment 7 (660~860 aa) (human, UniProt P56192 660-860)
T6 construct: not shown: Myc linked to the N-terminus
T6 sequence: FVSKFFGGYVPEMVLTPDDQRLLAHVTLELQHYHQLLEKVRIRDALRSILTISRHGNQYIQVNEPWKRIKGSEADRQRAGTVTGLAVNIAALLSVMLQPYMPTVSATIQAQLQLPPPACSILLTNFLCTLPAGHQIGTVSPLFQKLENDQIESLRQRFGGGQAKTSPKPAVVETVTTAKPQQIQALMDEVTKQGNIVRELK


Tests used:
[1] = target: T1, MRS fragment 3 (267~597 aa); experiment: western blot of lysates of H460 cells transfected with Myc-tagged MRS fragments
Experimental: (§1) Six fragments of different lengths and positions were prepared based on the GST, catalytic domain, and tRNA binging domains of the MRS protein, and MRS protein and each of the MRS fragments were cloned into pcDNA3 vector (EV). At this time, since Myc protein is linked to the N-terminus of MRS protein, Myc protein was used as a control.
(§2) Then, 2 μg of the cloned vector DNA were transfected into H460 cells using Turbofect (Thermo) according to the manufacturer's instructions. After 24 hours, cells were harvested and subjected to western blot. 1E8 antibody and 8A12 antibody were diluted 1:5000 (0.2 μg/mL) as the primary antibody.

[2] = target: T2, MRS fragment 4 (1~597 aa); experiment: as above
Experimental: as §1, §2

[3] = target: T3, MRS fragment 1 (1~266 aa); experiment: as above
Experimental: as §1, §2

[4] = target: T4, MRS fragment 2 (267~417 aa); experiment: as above
Experimental: as §1, §2

[5] = target: T5, AIMP3 (aminoacyl tRNA synthetase …); experiment: SPR, CM5 chip coated with AIMP3, antibody flowed at 0.20 to 200 nM
Experimental: Surface plasmon resonance (SPR) experiments were carried out using 1E8 and 8A12 antibodies and MRS+AIMP3 protein obtained in Example 1.
CM5 chips were coated with MRS+AIMP3 or AIMP3 proteins and 1E8 or 8A12 antibodies were flowed at various concentrations to measure the degree of binding reaction with the proteins. Samples or buffers were injected for 8 minutes at a flow rate of 30 μl/min and washed for 20 minutes.

[6] = target: T6, MRS fragment 7 (660~860 aa); experiment: western blot of lysate of transfected H460 cells
Experimental: as §2
Then, western blot was performed in the same manner as described above.

Row | Binder | binding result [1] | binding result [2] | binding result [3] | binding result [4] | binding result [5] | binding result [6]
1 | 1E8 antibody (1E8 IgG) (antibody, V domains shown, Mouse monoclonal from hybridoma clone 1E8; also called IE8; anti-MRS antibody (1E8)) VH: DVKLQESGPGLVNPSQSLSLTCTVTGYSITSDYAWNWIRQFPGNKLEWMGYISYSGRTSYKSSLKSRISITRDTSKNQFFLELNSVTTEDTATYYCARDYGNFVGYFDVWGAGTTVTVSS VL: DIVMTQSPSSLAVSVGEKVTMSCKSSQSLLYSSNQKNYLAWYQQKPGQSPKLLIYWASTRESGVPDRFTGSGSGTEFTLTISSVKAEDLAVYYCQQYYSYPTFGGGTKLEIKA | no binding (tested: 0.2 µg/mL (1:5000, from paragraph 148)) | no binding (tested: 0.2 µg/mL (1:5000, from paragraph 148)) | no binding (tested: 0.2 µg/mL (1:5000, from paragraph 148)) | no binding (tested: 0.2 µg/mL (1:5000, from paragraph 148)) | no binding (tested: 200 nM) | no binding (tested: 1:5000 (0.2 ug/mL))
2 | 8A12 antibody (8A12 IgG) (antibody, V domains shown, Mouse monoclonal from hybridoma clone 8A12; also called 8Al2; anti-MRS antibody (8A12)) VH: DVKLQESGPGLVKPSQSLSLTCTVTGYSITSEYAWTWIRQFPGNKLEWMGYINYNGNTNLNPSLKSRISIIRDTSKNQFFLQLNSVTTEDTATYYCARSLWPRGWFAYWGQGTLVTVSA VL: DIQMTQSPSSMYASLGERVTITCKASQDINSYLSWFQQKPGKSPKTLMYRANRLVDGVPSRFSGSGSGQDYSLTISSLEYEDMGIYYCLQYDEFPRTFGGGTKLEIKA | no binding (tested: 0.2 µg/mL (1:5000, from paragraph 148)) | no binding (tested: 0.2 µg/mL (1:5000, from paragraph 148)) | no binding (tested: 0.2 µg/mL (1:5000, from paragraph 148)) | no binding (tested: 0.2 µg/mL (1:5000, from paragraph 148)) | no binding (tested: 200 nM) | no binding (tested: 1:5000 (0.2 ug/mL))
